T1: Bd0055 (UniProt Q6MRM1 1-64)
T1 sequence: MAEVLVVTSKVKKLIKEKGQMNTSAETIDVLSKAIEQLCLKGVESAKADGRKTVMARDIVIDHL

B1: Bd0055, B. bacteriovorus histone (natural protein, Bdellovibrio bacteriovorus HD100, UniProt Q6MRM1 1-64, looked up)
chain: T1 sequence
notes: Bd0055, singlet histone-fold protein of Bdellovibrio bacteriovorus HD100; open reading frame codon optimized for E. coli, cloned into a pET vector; No tag is named; purified by cation exchange, heparin and size exclusion; Histone-fold homodimer in both crystal structures; also called wild type Bd0055; bacterial histone Bd0055; source: E. coli, purified (SP HP, Heparin HP, S75)
B2: 35 bp crystallization DNA (dsDNA)
DNA 1: TCTTGCACTAAGAGCTACTGGAGTGCGTCAGATGT
DNA 2: ACATCTGACGCACTCCAGTAGCTCTTAGTGCAAGA

Legend:
[1] = molecular target: the molecule itself; assay: crystal structure; apo Bd0055; hanging drop, 3.2 M (NH4)2SO4, 100 mM BICINE pH 9; 1.8 Å
Bd0055 = molecular target: T1, Bd0055; assay: X-ray crystallography; 1 dimer per 2.5 bp; straight DNA; asymmetric unit has one dimer with 2 nt + 3 nt; FP/FRET: 10 nM DNA, 10 mM NaCl, 1 mM EDTA, 50 mM HEPES pH 6, r.t.; EMSA: 1 µM DNA, 10 mM NaCl, 1 mM EDTA, 50 mM HEPES pH 7.5, r.t., 10% native PAGE 0.2x TBE; conditions: protein: recombinant; chain copies: 2; blunt

Row | Binder | binding result [1] | binding result (Bd0055)
1 | B1 | binds | 
2 | B2 |  | binds

— paper PMC10627809, “Histones with an unconventional DNA-binding mode in vitro are major chromatin constituents in the bacterium Bdellovibrio bacteriovorus” (Nature Microbiology, 2023)
